According to publication PMC4197010 (Journal of controlled release : official journal of the …, 2014):
Read-outs that look alike come from different tables or passages of the source.

Experiments:
[1] = biological target: T1, chimera leptin receptor (ObR-Fc) (UniProt P48356 22-839); assay: SPR
T1 sequence (looked up): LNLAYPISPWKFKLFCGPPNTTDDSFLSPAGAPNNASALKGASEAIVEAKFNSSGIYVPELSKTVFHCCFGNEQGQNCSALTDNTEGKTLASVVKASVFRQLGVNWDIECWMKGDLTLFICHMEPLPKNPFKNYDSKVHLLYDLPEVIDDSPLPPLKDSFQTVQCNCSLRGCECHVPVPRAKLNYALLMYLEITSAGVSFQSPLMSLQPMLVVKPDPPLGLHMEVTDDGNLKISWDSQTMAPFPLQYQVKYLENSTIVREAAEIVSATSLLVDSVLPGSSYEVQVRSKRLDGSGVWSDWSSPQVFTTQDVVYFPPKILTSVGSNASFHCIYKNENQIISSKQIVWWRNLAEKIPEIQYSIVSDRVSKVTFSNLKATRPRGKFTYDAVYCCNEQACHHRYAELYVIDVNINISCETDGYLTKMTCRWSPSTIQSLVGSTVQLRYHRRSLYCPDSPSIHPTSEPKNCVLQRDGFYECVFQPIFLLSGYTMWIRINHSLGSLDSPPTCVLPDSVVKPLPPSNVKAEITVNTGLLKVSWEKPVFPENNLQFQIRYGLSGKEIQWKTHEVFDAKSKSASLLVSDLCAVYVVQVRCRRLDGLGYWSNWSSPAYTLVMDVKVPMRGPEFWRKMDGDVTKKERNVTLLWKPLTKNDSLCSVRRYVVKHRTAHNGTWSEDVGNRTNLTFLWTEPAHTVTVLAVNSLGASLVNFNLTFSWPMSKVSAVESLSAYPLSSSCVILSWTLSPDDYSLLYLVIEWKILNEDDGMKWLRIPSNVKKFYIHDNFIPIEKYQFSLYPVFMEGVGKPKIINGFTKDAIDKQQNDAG

[2] = biological target: T1, chimera leptin receptor (ObR-Fc); assay: SPR; remark: listed apart in the source

Kd [1]: 0.337 nM
Kd [2]: 0.1 nM
B1: Mouse recombinant leptin (ligand, UniProt P41160 22-167, looked up)
chain: VPIQKVQDDTKTLIKTIVTRINDISHTQSVSAKQRVTGLDFIPGLHPILSLSKMDQTLAVYQQVLTSLPSQNVLQIANDLENLRDLLHLLAFSKSCSLPQTSGLQKPESLDGVLEASLYSTEVVALSRLQGSLQDILQQLDVSPEC
